Patent US12410253B2, “Compositions comprising anti-NRP2 antibodies” (aTyr Pharma, Inc., priority 2019, dated 2025)
“Also recorded” adds a separate entry of the source.

T1: NRP2/FLT4(VEGFR3) (Homo sapiens, UniProt O60462)
T1 construct: The complete extracellular domain and transmembrane helices of NRP2a (version 2), NRP2b (version 5); expressed in transfected cells; host or cells: Expi293, transient co-transfection
T1 sequence (O60462 23-859 isoform O60462-3 limits assumed): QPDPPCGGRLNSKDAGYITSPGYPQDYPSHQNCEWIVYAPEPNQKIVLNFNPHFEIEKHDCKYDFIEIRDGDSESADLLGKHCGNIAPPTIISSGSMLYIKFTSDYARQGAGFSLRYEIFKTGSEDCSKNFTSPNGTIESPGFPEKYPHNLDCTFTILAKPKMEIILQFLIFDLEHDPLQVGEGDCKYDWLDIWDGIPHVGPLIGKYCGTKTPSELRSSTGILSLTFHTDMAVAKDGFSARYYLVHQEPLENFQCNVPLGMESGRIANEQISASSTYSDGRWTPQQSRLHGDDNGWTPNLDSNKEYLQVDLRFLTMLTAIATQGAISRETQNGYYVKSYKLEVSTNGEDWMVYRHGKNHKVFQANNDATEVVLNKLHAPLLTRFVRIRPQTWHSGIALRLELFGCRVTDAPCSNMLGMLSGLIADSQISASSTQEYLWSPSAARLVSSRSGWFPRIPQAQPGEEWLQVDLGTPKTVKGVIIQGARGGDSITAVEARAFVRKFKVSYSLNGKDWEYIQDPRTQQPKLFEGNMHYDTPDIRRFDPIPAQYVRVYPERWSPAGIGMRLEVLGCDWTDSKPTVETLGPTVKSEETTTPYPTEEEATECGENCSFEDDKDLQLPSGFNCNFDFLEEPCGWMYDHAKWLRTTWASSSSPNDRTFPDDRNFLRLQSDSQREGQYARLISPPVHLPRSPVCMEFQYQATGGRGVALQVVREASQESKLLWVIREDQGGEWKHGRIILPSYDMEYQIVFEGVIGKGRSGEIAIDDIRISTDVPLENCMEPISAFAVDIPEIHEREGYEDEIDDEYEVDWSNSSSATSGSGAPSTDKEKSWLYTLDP

T2: NRP2/KDR(VEGFR2) (Homo sapiens, UniProt O60462)
T2 construct: The complete extracellular domain and transmembrane helices of NRP2a (version 2), NRP2b (version 5); expressed in transfected cells; host or cells: Expi293, transient co-transfection
T2 sequence (O60462 23-859 isoform O60462-3 limits assumed): T1 sequence (O60462 23-859 isoform O60462-3 limits assumed)

B1: aNRP2-10v10: humanized, affinity matured anti-NRP2 antibody, target domain b1, VEGF-C blocking; VH SEQ ID NO: 49, VL SEQ ID NO: 50 (antibody, V domains shown)
VH: EVQLVQSGAEVKKPGATVKISCKVSGFNIKDYYVHWVQQAPGKGLEWMGRIDVEDDETKYAPKFQGRVTITADTSTDTAYMELSSLRSEDTAVYYCATPIYGAREAWFAYWGQGTLVTVSS
VL: DIQMTQSPSSLSASVGDRVTITCTASSSVSSSYLHWYQQKPGKAPKLLIYRTSNLASGVPSRFSGSGSGTDFTLTISSLQPEDFATYYCHQYYRSPPTFGGGTKVEIK
modifications: Variable heavy chain region; Light chain variable region
B2: aNRP2-11v7: humanized, affinity matured anti-NRP2 antibody, target domain b2; VH SEQ ID NO: 51, VL SEQ ID NO: 52 (antibody, V domains shown)
VH: QVQLVQSGAEVKKPGASVKVSCKASGYTFTSFGISWVRQAPGQGLEWIGEIYPRSGNTYYNENFKGRATMTADKSTSTAYMELRSLRSDDTAVYYCARSSGYYGSTPFPYWGQGTLVTVSS
VL: DIQMTQSPSSLSASVGDRVTITCRASQDISNYLNWYQQKPGKAVKLLIYYTSRLHSGVPSRFSGSGSGTDYTFTISSLQPEDIATYYCQQGNTLPWTFGGGTKVEIK
modifications: Variable heavy chain region; Light chain variable region

Assays:
[1] = biological target: T1, NRP2/FLT4(VEGFR3); assay: Split-luciferase receptor dimerization assay, NRP2/FLT4 with VEGF-C; assay type: cell-based; settings: antibody 100 nM; ligand induced dimerization
Description: (§1) To further extend the assessment of the biological activity of the anti-NRP2 antibodies, their activity was assessed in a receptor dimerization assay. In brief, vectors encoding a split luciferase pBiT1.1 and pBiT2.1 were obtained from Promega corporation (Madison, Wisconsin). The complete extracellular domain and transmembrane helices of NRP2a (version 2), NRP2b (version 5) (See table N1), FLT4 (VEGFR3), KDR (VEGFR2), and plexin A1 (PLXNA1) were cloned into the vectors and screened for optimal orientation, receptor density, and ligand induced dimerization, following established methods. Expi293 cells (Fisher) were transfected at 1 million cells/mL ˜20 hours prior to the assay with NRP2 and a co-receptor at equal mass amounts. Cells were counted, and 100,000 live cells were plated in a well of a white luminometer plate in Live Cell Imaging Solution (Fisher). Nano-Glo assay substrate (Promega) was added, and the plate was read on a Glomax 96 luminometer at room temperature to establish baseline luminescence. Antibodies were added to the well at 100 nM and the plate was again read to establish a new baseline and monitor the effects of the antibodies on spontaneous receptor dimerization. Depending on the receptor pair, typically 200 nM SEMA3F-p95 (aTyr Pharma), 2 nM VEGF-C(R&D Systems, Minnesota), or 2 nM VEGF165 (R&D Systems, Minnesota) were then added and the plate was again read to measure dimerization of receptors. Normalized responses for each individual well were calculated to the time point prior to addition of ligand, then normalized to no-antibody/no-ligand (baseline signal). Replicates were then processed to give average response and standard deviation. Results are summarized in Table E3 below, and shown graphically in FIGS. 3-10.

[2] = tested on: MDA-MB-231 cells; assay: 3D methylcellulose colony formation assay, MDA-MB-231; assay type: cell-based, human; settings: antibody 100 nM in combination with Cisplatin (2 doses) or Bevacizumab (100 nM), compared to hIgG4
Source text: Other experimental details are essentially the same as described in the previous example.

[3] = tested on: human lymphatic endothelial cell (HLEC); assay: HLEC migration toward VEGF-C (modified Boyden chamber, xCELLigence); assay type: cell-based; settings: 191.5 pM VEGF-C, 24 hour period
Description: Migration assays were performed using a modified Boyden Chamber with […] pore size membrane, 16-well CIM plate (ACEA Biosciences.) Both sides of the membrane were coated with 5 μg/ml Fibronectin (Sigma) for 30 minutes at 37° C., 5% CO2. 160 μl of 191.5 pM VEGF-C or assay medium (0.1% BSA, ECM) was added to the lower chamber, the upper well attached, 50 ul assay medium added to the upper chamber before replacing the lid, and the plate was incubated for 1 hour at 37° C., 5% CO2 before baseline measurement was taken. HLECs were harvested, washed, and re-suspended in assay medium at 100,000 cells/well with aNRP2 antibody or control proteins and incubated for 30 minutes at 37° C., 5% CO2. Cells were added to the plate and incubated at room temperature for 30 minutes. Plate was inserted into xCELLigence RTCA DP (ACEA Biosciences) instrument, and migration was measured real-time every 5 minutes over a 24 hour period (2 wells per condition).

[4] = tested on: phospho-Akt levels in U251 glioblastoma cells; assay: Semaphorin 3F mediated inhibition of AKT phosphorylation in U251 cells; assay type: cell-based; settings: antibody 10 μg/mL, 25 nM Sema3F 1 hour
Description: As shown schematically in FIG. 17, the treatment of cells with Sema3F should specifically block PI3K activity via NRP2 mediated interaction with plexin A1, thereby resulting in reduced phospho-Akt levels. To directly test the ability of the anti-NRP2 antibodies to block this effect, lysates were prepared following standard protocols (MesoScale Discovery, Phospho (Ser473)/Total Akt Assay Whole Cell Lysate Kit #K15100D). Serum starved and confluent U251 cells (Sigma, Cat. 09063001) were treated with 10 nM rapamycin (Sigma, Cat. 553211, 30 minutes), and blocking antibodies or controls were added (10 μg/mL, 30 minutes), followed by 25 nM Sema3F or serum free media for 1 hour in triplicate. Lysate protein concentrations were determined by BCA assay and samples were equalized to 0.4 mg/mL. Phospho and Total AKT were measured following the manufacturer's instructions and percent phosphorylation was calculated by dividing phosphorylated AKT relative units by total AKT relative units. Blocking of Sema3F for each antibody or control was determined by comparing percent phosphorylation of Sema3F treated cells to percent phosphorylation of non-Sema3F treated cells.

[5] = biological target: T2, NRP2/KDR(VEGFR2); assay: Split-luciferase receptor dimerization assay, NRP2/KDR with VEGF-A; assay type: cell-based; settings: antibody 100 nM; ligand induced dimerization
Description: as §1, with “Expi293 cells (Fisher) were transfected at 1 million cells/mL ˜20 hours prior to the assay with NRP2 and a co-receptor at equal mass amounts.” left out, “Normalized responses for each individual well were calculated to the time point prior to addition of ligand, then normalized to no-antibody/no-ligand (baseline signal). Replicates were then processed to give average response and standard deviation. Results are summarized in Table E3 below, and shown graphically in FIGS. 3-10.” left out

Row | Molecule | effect on NRP2-VEGFR3 (FLT4) heterodimerization (in words) [1] | colony formation by MDA-MB-231 cells, methylcellulose [2] | migration of HLEC cells towards VEGF-C [3] | blocking of the Sema3F induced decrease in intracellular phospho-Akt levels [4] | effect on NRP2-KDR dimerization (in words) [5]
1 | B1 | potently inhibit | inhibitory effect; also recorded: significantly enhanced inhibition of colony formation | inhibited by both NRP2 antibodies to levels consistent with positive control antibodies; also recorded: effective block the migration of HLEC cells towards VEGF-C in a dose dependent manner | not blocked | –
2 | B2 | ability to inhibit | – | inhibited by both NRP2 antibodies to levels consistent with positive control antibodies; also recorded: effective block the migration of HLEC cells towards VEGF-C in a dose dependent manner | blocked the reduction in phospho-Akt levels; also recorded: block semaphorin 3F mediated inhibition of AKT phosphorylation; also recorded: can be blocked | increased the ligand induced dimerization signal
